Laboratory results taken from the Immune Epitope Database (IEDB).

Assays:
HLA-A*02:03 = test: IEDB peptide-MHC binding, purified MHC/competitive/radioactivity; filed as Kd, often an IC50 or EC50 that approximates it; ≥ and ≤ were set here for values at or beyond the usual limits of such assays
HLA-A*02:02 = test: as above
HLA-A*02:06 = test: as above
HLA-A*68:02 = test: as above
HLA-A*02:01 [1] = test: as above
HLA-B*44:03 = test: as above
HLA-B*44:02 = test: as above
HLA-B*40:02 = test: as above
HLA-B*18:01 = test: as above
HLA-B*40:01 = test: as above
HLA-B*45:01 = test: as above
HLA-A*33:01 = test: as above; conditions: source organism: Vaccinia virus WR
HLA-A*03:01 = test: as above; conditions: source organism: Vaccinia virus WR
HLA-B*54:01 = test: as above; conditions: source organism: Vaccinia virus WR
HLA-A*11:01 = test: as above; conditions: source organism: Vaccinia virus WR
HLA-A*68:01 = test: as above; conditions: source organism: Vaccinia virus WR
HLA-A*31:01 = test: as above; conditions: source organism: Vaccinia virus WR
HLA-B*07:02 = test: as above; conditions: source organism: Vaccinia virus WR
HLA-B*51:01 = test: as above; conditions: source organism: Vaccinia virus WR
HLA-B*53:01 = test: as above; conditions: source organism: Vaccinia virus WR
HLA-B*35:01 = test: as above; conditions: source organism: Vaccinia virus WR
HLA-A*24:02 = test: IEDB peptide-MHC binding, purified MHC/competitive/fluorescence; ≥ and ≤ were set here for values at or beyond the usual limits of such assays
HLA-A*02:01 [2] = test: as above
HLA-A*01:01 = test: IEDB peptide-MHC binding, purified MHC/competitive/radioactivity; filed as Kd, often an IC50 or EC50 that approximates it; ≥ and ≤ were set here for values at or beyond the usual limits of such assays; conditions: source organism: Dengue virus 3 Martinique/1243/1999
[3] = source organism: Lassa virus GA391
[4] = source organism: SARS coronavirus Tor2
[5] = source organism: Mammarenavirus brazilense
[6] = source organism: Dengue virus 3 Martinique/1243/1999
[7] = source organism: Vaccinia virus WR
[8] = source organism: Trypanosoma cruzi
[9] = source organism: Sudan ebolavirus
[10] = source organism: Zaire ebolavirus
[11] = source organism: Mammarenavirus machupoense
[12] = source organism: Lymphocytic choriomeningitis virus (strain Armstrong)
[13] = source organism: Dengue virus 2 Jamaica/1409/1983
[14] = source organism: Mammarenavirus guanaritoense

LLHGLDFSEV
Kd (HLA-A*02:03; [3]): 0.00357 µM | Kd (HLA-A*02:02; [3]): 0.117 µM | Kd (HLA-A*02:06; [3]): 0.0712 µM | Kd (HLA-A*68:02; [3]): ≥ 5 µM | Kd (HLA-A*02:01 [1]; [3]): 0.0658 µM

IEYSDFATSA
Kd (HLA-B*44:03; [4]): 0.658 µM | Kd (HLA-B*44:02; [4]): 0.728 µM | Kd (HLA-B*40:02; [4]): 0.147 µM | Kd (HLA-B*18:01; [4]): 0.135 µM | Kd (HLA-B*40:01; [4]): 16.7 µM | Kd (HLA-B*45:01; [4]): 0.154 µM

HEFVDEFYA
Kd (HLA-B*44:03; [4]): 5.58 µM | Kd (HLA-B*44:02; [4]): 18.6 µM | Kd (HLA-B*40:02; [4]): 0.055 µM | Kd (HLA-B*18:01; [4]): 3.01 µM | Kd (HLA-B*40:01; [4]): 1.19 µM | Kd (HLA-B*45:01; [4]): 0.157 µM

KEPGVSRELL
Kd (HLA-B*44:03; [5]): ≥ 70.1 µM | Kd (HLA-B*44:02; [5]): ≥ 70.2 µM | Kd (HLA-B*40:02; [5]): 1.06 µM | Kd (HLA-B*18:01; [5]): ≥ 70.4 µM | Kd (HLA-B*40:01; [5]): 1.32 µM | Kd (HLA-B*45:01; [5]): ≥ 70 µM

RLQQELDDL
Kd (HLA-A*68:02; source organism: Homo sapiens): ≥ 125 µM

LTVAWRTATL
Kd (HLA-A*68:02; [6]): 0.0324 µM

DLKDLEAHI
Kd (HLA-A*02:06; source organism: Homo sapiens): ≥ 109 µM | Kd (HLA-A*68:02; source organism: Homo sapiens): 17.6 µM | Kd (HLA-A*02:01 [1]; source organism: Homo sapiens): ≥ 83.4 µM

TLNHVLALK
Kd (HLA-A*33:01): 0.656 µM | Kd (HLA-A*03:01): 0.00247 µM | Kd (HLA-B*54:01): ≥ 78.1 µM | Kd (HLA-A*11:01): 0.00128 µM | Kd (HLA-A*02:03; [7]): 0.281 µM | Kd (HLA-A*02:02; [7]): ≥ 77.8 µM | Kd (HLA-A*02:06; [7]): 14.1 µM | Kd (HLA-A*68:01): 0.00417 µM | Kd (HLA-A*31:01): 0.0361 µM | Kd (HLA-B*07:02): ≥ 77.5 µM | Kd (HLA-A*68:02; [7]): ≥ 76.9 µM | Kd (HLA-B*51:01): ≥ 77.5 µM | Kd (HLA-B*53:01): ≥ 78.2 µM | Kd (HLA-B*35:01): 10.4 µM | Kd (HLA-A*02:01 [1]; [7]): ≥ 78.1 µM

FANYGFTLA
Kd (HLA-A*02:03; [8]): 0.0462 µM | Kd (HLA-A*02:02; [8]): 1.98 µM | Kd (HLA-A*02:06; [8]): 0.000447 µM | Kd (HLA-A*68:02; [8]): 1.64 µM | Kd (HLA-A*02:01 [1]; [8]): 1.5 µM

TTGRLIWTL
IC50 (HLA-A*24:02; [9]): 0.309 µM | IC50 (HLA-A*02:01 [2]; [9]): 2 µM

TLATISTSP
IC50 (HLA-A*24:02; [10]): ≥ 88.9 µM | IC50 (HLA-A*02:01 [2]; [10]): 29.7 µM

PEANMDQESF
Kd (HLA-B*44:03; [4]): 10.6 µM | Kd (HLA-B*44:02; [4]): 7.54 µM | Kd (HLA-B*40:02; [4]): 10.1 µM | Kd (HLA-B*18:01; [4]): ≥ 53.2 µM | Kd (HLA-B*40:01; [4]): 4.2 µM | Kd (HLA-B*45:01; [4]): ≥ 26 µM

EEVLDVCPLG
Kd (HLA-B*44:03; [11]): ≥ 51.1 µM | Kd (HLA-B*44:02; [11]): ≥ 70.2 µM | Kd (HLA-B*40:02; [11]): 9.75 µM | Kd (HLA-B*18:01; [11]): 4.84 µM | Kd (HLA-B*40:01; [11]): 14.2 µM | Kd (HLA-B*45:01; [11]): 4.44 µM

ADNMITEML
Kd (HLA-B*44:03; [12]): 17.8 µM | Kd (HLA-B*44:02; [12]): 17.7 µM | Kd (HLA-B*40:02; [12]): 1.41 µM | Kd (HLA-B*18:01; [12]): ≥ 77.5 µM | Kd (HLA-B*40:01; [12]): 19.5 µM | Kd (HLA-B*45:01; [12]): ≥ 77.7 µM

VVIAILTVV
Kd (HLA-A*02:03; [13]): 0.0338 µM | Kd (HLA-A*02:06; [13]): 0.0136 µM | Kd (HLA-A*68:02; [13]): 0.347 µM

PTLTTPENI
IC50 (HLA-A*24:02; [9]): 53.7 µM | IC50 (HLA-A*02:01 [2]; [9]): ≥ 269 µM

AEFTFQLNL
Kd (HLA-B*44:03; [14]): 0.0508 µM | Kd (HLA-B*44:02; [14]): 0.0599 µM | Kd (HLA-B*40:02; [14]): 0.000946 µM | Kd (HLA-B*18:01; [14]): 5.93 µM | Kd (HLA-B*40:01; [14]): 0.0661 µM | Kd (HLA-B*45:01; [14]): 0.21 µM

EEILGTVSW
Kd (HLA-B*44:03; [4]): 0.00258 µM | Kd (HLA-B*44:02; [4]): 0.00319 µM | Kd (HLA-B*40:02; [4]): 0.378 µM | Kd (HLA-B*18:01; [4]): 0.0783 µM | Kd (HLA-B*40:01; [4]): 3.08 µM | Kd (HLA-B*45:01; [4]): 1.55 µM

YSIPATLLV
Kd (HLA-A*01:01): 0.941 µM | Kd (HLA-A*02:06; [6]): 0.0102 µM | Kd (HLA-A*68:02; [6]): 0.0169 µM

KQLQQYAES
IC50 (HLA-A*24:02; [10]): 20.8 µM | IC50 (HLA-A*02:01 [2]; [10]): ≥ 187 µM

DEWSVATFYL
Kd (HLA-B*44:03; [4]): 0.356 µM | Kd (HLA-B*44:02; [4]): 0.939 µM | Kd (HLA-B*40:02; [4]): 0.119 µM | Kd (HLA-B*18:01; [4]): 0.0771 µM | Kd (HLA-B*40:01; [4]): 1.49 µM | Kd (HLA-B*45:01; [4]): 1.01 µM
